From article PMC2754075 (Nature cell biology, 2009)

Target: MBP-VPRBP (UniProt Q9Y4B6 1-1507)
Test: pull-down

Chain of MBP-VPRBP (Q9Y4B6 whole entry): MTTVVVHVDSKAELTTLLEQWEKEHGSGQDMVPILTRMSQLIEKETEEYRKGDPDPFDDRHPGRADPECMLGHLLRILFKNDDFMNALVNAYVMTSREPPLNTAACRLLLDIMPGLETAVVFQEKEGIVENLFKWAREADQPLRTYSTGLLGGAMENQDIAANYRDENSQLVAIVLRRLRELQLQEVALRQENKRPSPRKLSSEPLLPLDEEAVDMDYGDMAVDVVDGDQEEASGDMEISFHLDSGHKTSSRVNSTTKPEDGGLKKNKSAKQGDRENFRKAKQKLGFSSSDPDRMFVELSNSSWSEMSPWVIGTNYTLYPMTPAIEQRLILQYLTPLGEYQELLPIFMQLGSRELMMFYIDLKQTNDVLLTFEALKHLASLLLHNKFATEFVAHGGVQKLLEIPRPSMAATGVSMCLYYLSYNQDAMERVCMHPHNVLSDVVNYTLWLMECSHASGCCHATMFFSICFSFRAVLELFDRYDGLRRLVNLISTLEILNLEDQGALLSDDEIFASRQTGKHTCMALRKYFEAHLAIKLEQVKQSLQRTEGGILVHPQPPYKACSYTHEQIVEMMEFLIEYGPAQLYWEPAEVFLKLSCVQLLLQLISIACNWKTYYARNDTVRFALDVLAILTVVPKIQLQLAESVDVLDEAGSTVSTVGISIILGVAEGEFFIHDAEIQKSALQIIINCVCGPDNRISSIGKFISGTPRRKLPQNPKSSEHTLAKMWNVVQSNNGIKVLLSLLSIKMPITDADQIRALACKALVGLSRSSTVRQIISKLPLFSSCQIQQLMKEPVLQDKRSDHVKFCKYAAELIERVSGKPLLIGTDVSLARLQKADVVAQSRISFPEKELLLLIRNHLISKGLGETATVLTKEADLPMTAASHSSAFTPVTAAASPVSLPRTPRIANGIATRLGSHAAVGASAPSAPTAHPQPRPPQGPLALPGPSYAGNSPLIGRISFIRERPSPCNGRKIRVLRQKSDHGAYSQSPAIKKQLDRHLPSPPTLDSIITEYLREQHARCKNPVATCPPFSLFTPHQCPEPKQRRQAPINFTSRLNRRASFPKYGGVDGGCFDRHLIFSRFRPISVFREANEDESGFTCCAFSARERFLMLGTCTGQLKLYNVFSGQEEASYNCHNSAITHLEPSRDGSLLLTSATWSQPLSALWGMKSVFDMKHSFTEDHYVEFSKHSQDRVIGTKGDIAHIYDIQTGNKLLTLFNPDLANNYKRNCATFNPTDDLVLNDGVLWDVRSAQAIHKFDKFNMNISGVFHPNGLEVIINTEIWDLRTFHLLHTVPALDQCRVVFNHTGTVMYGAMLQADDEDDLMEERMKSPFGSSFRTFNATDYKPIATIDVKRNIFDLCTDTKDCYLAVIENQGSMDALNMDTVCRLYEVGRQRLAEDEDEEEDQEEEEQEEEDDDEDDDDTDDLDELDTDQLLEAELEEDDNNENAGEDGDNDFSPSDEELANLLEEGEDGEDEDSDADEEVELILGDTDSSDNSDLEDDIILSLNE

B1: GST-Katanin (natural protein)
chain: MSLLMISENVKLAREYALLGNYDSAMVYYQGVLDQMNKYLYSVKDTYLQQKWQQVWQEINVEAKHVKDIMKTLESFKLDSTPLKAAQHDLPASEGEVWSMPVPVERRPSPGPRKRQSSQYSDPKSHGNRPSTTVRVHRSSAQNVHNDRGKAVRCREKKEQNKGREEKNKSPAAVTEPETNKFDSTGYDKDLVEALERDIISQNPNVRWDDIADLVEAKKLLKEAVVLPMWMPEFFKGIRRPWKGVLMVGPPGTGKTLLAKAVATECKTTFFNVSSSTLTSKYRGESEKLVRLLFEMARFYSPATIFIDEIDSICSRRGTSEEHEASRRVKAELLVQMDGVGGTSENDDPSKMVMVLAATNFPWDIDEALRRRLEKRIYIPLPSAKGREELLRISLRELELADDVDLASIAENMEGYSGADITNVCRDASLMAMRRRIEGLTPEEIRNLSKEEMHMPTTMEDFEMALKKVSKSVSAADIERYEKWIFEFGSC
- binding result: binds
